1 substance from article PMC8213764 can be followed below.

This assay has as its target Human intelectin-1 (ITLN1) of human ileal lysates, genotype at residue 109 not told for the sentence (human (endogenous in ileum)) (UniProt Q8WWA0). Nature of the assay: non-reducing SDS-PAGE immunoblot; human ileal lysates (150 mM NaCl, 1% Triton X-100, 0.5% sodium deoxycholate, 0.1% SDS, 50 mM Tris pH 8.0), heated at 95 °C for 30 min without 2-mercaptoethanol, gradient SDS-PAGE (4-20%), immunoblot; oligomers stable under denaturing conditions.

In general, stoichiometry N refers to the number of molecules, sites or subunits per partner or assembly.

Values joined by “and” are separate entries in the source; they are usually repeats but may differ in a detail not shown here. Identical values can stand only once.

For “Human intelectin-1 (ITLN1) of human ileal lysates, genotype at residue 109 not told for the sentence (from UniProt Q8WWA0 19-298) (natural protein)”, the stoichiometry N was 3 and 6.
